Laboratory results reported in JP2012161321A.
Positions count from the first letter of the chain named. Blank lines part the entries; values can stand above or below the binder they belong to.

Experiments:
[1] = biological target: Muc1ムチン bearing the CA6 sialoglycotope (DS6 antigen), as expressed by CA6-positive human tumour cell lines (human) (UniProt P15941); assay: flow cytometry on Caov-3 cells, apparent Kd (Fig. 20)
[2] = biological target: Muc1ムチン bearing the CA6 sialoglycotope (DS6 antigen), as expressed by CA6-positive human tumour cell lines (human) (UniProt P15941); assay: cell-based or functional assay
[3] = biological target: Muc1ムチン bearing the CA6 sialoglycotope (DS6 antigen), as expressed by CA6-positive human tumour cell lines (human) (UniProt P15941); assay: flow cytometry, direct binding to KB cells, apparent Kd (Fig. 18)
[4] = biological target: Muc1ムチン bearing the CA6 sialoglycotope (DS6 antigen), as expressed by CA6-positive human tumour cell lines (human) (UniProt P15941); assay: flow cytometry competition; competitor 2 nM biotin-muDS6, streptavidin-DTAF (Fig. 19)

Sequence of UniProt P15941 (P15941 24-1255): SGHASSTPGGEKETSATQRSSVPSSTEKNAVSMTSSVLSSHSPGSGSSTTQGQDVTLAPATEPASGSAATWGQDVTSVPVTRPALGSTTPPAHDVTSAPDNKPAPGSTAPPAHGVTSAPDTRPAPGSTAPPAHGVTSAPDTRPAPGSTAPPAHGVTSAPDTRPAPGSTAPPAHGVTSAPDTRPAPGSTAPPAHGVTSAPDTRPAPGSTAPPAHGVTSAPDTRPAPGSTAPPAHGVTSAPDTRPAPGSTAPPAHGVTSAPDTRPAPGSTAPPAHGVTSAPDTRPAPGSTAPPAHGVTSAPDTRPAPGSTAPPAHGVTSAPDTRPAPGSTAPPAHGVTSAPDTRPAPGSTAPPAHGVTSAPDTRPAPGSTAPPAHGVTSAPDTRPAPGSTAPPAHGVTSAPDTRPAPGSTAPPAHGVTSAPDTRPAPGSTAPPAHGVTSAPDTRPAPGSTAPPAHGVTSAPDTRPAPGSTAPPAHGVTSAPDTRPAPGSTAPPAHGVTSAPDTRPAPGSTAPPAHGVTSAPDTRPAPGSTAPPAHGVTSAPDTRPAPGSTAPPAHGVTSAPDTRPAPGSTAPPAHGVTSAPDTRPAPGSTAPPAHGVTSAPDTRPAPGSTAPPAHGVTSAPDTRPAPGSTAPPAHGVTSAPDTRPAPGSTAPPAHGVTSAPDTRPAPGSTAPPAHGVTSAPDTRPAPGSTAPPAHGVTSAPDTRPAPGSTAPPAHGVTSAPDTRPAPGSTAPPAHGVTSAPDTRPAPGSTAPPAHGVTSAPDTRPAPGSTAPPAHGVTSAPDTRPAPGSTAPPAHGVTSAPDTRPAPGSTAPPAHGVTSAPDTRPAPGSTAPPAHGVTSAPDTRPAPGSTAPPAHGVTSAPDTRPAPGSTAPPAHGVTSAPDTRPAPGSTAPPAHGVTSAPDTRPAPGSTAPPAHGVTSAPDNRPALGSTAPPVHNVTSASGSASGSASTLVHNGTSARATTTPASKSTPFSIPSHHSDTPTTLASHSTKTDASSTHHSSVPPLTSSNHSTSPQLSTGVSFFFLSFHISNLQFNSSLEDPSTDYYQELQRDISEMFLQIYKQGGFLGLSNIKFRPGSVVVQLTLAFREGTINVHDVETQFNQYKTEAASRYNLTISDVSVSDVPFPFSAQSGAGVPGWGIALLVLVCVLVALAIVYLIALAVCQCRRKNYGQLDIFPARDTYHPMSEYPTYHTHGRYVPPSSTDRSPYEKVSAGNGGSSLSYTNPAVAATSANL

B2: ヒト化DS6 1.01型 (humanized DS6 version 1.01) (antibody, from another filing, V domains shown)
VH: QAQLVQSGAEVVKPGASVKMSCKASGYTFTSYNMHWVKQTPGQGLEWIGYIYPGNGATNYNQKFQGKATLTADTSSSTAYMQISSLTSEDSAVYFCARGDSVPFAYWGQGTLVTVSA
VL: EIVLTQSPATMSASPGERVTITCSAHSSVSFMHWFQQKPGTSPKLWIYSTSSLASGVPARFGGSGSGTSYSLTISSMEAEDAATYYCQQRSSFPLTFGAGTKLELKR
Kd [3]: 0.82 nM | EC50 [4]: 3 nM

B4: ヒト化DS6 1.21型 (humanized DS6 version 1.21) (antibody, from another filing, V domains shown)
VH: B2 VH with T74P
VL: B2 VL
Kd [3]: 0.85 nM | EC50 [4]: 1.9 nM

B5: huDS6v1.01−SPDB−DM4コンジュゲート (antibody, from another filing, human IgG1, V domains shown)
VH: B2 VH
VL: B2 VL
IC50, in vitro cytotoxicity (MTT) on WISH cells [2]: 0.44 nM

Second part, the binder after the results:

Kd [1]: 3.9 nM | IC50, colony formation assay on Caov-3 cells [2]: 0.8 nM
B1: muDS6−DM1細胞傷害性コンジュゲート (muDS6-SPP-DM1) (antibody, from another filing, V domains shown)
VH: B2 VH with Q3Y, V5Q, V11L, K13R, P14S, Q65K, T74P
VL: B2 VL with E1Q, T10I, R18K, S76R

Kd [3]: 0.69 nM | EC50 [4]: 1.7 nM
B3: DS6のキメラ型 (chimeric DS6, human constant regions and murine variable regions) (antibody, from another filing, V domains shown)
VH: B2 VH with Q3Y, V5Q, V11L, K13R, P14S, Q65K, T74P
VL: B2 VL with E1Q, T10I, R18K, S76R
